Experimental findings from IntAct's records for PubMed 19536138 are described below.

For assay [1], the target named is clh1_rat Cltc (UniProt P11442).
The target of assay [2] is clh1_rat Cltc (UniProt P11442). The source holds these as a separate data set.
The target of assay [3] is clh1_rat Cltc (UniProt P11442). This is another data set of the same source.

Chain of clh1_rat Cltc (P11442 whole entry): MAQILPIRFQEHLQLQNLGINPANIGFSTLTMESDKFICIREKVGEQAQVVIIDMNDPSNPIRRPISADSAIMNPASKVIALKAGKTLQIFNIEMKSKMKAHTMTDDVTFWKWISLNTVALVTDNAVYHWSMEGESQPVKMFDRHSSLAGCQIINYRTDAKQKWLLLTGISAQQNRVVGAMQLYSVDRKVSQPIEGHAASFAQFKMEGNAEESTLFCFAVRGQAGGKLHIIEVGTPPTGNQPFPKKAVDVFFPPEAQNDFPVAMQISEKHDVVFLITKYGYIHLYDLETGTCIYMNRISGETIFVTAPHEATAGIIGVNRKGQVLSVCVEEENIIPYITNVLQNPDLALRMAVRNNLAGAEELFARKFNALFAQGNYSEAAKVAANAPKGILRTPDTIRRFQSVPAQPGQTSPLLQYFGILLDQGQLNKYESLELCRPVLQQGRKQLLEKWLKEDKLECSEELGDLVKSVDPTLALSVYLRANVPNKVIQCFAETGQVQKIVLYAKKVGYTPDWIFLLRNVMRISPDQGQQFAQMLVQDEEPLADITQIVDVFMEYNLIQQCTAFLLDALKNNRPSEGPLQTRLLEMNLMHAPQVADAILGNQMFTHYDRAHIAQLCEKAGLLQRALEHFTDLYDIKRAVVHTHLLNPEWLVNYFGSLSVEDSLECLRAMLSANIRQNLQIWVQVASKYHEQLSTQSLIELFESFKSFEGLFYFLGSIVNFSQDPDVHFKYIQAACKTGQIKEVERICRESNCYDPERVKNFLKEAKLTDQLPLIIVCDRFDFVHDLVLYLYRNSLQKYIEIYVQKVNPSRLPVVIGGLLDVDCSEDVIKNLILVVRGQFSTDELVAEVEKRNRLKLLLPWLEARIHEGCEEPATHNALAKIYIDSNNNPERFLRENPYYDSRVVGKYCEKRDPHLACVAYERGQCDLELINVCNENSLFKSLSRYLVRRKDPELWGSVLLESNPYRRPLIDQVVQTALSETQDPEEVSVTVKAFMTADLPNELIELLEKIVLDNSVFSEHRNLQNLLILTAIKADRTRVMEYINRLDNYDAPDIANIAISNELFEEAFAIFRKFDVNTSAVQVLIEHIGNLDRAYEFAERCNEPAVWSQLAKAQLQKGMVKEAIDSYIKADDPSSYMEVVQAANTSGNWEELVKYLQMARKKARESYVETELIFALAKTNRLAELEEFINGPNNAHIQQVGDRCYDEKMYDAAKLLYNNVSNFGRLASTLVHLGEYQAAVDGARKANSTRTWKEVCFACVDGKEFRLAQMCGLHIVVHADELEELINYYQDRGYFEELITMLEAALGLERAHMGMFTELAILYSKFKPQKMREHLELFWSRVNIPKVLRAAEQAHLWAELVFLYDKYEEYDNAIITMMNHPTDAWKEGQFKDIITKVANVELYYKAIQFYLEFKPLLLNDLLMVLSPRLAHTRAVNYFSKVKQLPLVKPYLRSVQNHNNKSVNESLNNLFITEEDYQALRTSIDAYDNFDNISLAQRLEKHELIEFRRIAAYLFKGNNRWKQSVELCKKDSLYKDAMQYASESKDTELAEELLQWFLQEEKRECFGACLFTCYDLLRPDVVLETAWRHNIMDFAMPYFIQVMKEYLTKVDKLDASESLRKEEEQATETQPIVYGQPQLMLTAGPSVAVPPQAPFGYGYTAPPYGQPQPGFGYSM
Chain of Inositol polyphosphate 5-phosphatase OCRL (Homo sapiens), Q01968 I76Q (Q01968 whole entry I76Q): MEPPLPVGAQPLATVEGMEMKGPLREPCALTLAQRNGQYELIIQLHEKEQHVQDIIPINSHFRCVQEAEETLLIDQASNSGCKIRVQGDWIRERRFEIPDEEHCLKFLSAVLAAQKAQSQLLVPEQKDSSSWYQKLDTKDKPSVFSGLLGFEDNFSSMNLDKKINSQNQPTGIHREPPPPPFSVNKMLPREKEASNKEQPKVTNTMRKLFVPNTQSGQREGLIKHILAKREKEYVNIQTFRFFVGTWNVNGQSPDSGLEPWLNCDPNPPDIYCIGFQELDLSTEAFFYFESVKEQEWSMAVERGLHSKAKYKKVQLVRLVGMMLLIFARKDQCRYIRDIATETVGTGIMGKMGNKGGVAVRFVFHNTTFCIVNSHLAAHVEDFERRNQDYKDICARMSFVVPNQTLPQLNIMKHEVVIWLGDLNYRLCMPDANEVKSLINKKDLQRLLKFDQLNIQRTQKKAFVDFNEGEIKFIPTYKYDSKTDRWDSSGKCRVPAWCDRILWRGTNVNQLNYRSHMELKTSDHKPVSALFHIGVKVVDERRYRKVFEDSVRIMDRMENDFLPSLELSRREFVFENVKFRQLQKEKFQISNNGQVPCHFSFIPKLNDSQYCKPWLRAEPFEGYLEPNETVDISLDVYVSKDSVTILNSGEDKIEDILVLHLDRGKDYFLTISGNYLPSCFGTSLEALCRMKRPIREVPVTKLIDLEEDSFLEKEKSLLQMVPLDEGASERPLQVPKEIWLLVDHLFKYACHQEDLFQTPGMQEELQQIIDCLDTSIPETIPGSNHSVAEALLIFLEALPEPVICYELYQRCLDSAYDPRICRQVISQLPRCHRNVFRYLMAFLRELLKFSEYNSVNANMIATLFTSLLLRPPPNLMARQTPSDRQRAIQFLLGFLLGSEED
Chain of Inositol polyphosphate 5-phosphatase OCRL (Homo sapiens), Q01968 L73S (Q01968 whole entry L73S): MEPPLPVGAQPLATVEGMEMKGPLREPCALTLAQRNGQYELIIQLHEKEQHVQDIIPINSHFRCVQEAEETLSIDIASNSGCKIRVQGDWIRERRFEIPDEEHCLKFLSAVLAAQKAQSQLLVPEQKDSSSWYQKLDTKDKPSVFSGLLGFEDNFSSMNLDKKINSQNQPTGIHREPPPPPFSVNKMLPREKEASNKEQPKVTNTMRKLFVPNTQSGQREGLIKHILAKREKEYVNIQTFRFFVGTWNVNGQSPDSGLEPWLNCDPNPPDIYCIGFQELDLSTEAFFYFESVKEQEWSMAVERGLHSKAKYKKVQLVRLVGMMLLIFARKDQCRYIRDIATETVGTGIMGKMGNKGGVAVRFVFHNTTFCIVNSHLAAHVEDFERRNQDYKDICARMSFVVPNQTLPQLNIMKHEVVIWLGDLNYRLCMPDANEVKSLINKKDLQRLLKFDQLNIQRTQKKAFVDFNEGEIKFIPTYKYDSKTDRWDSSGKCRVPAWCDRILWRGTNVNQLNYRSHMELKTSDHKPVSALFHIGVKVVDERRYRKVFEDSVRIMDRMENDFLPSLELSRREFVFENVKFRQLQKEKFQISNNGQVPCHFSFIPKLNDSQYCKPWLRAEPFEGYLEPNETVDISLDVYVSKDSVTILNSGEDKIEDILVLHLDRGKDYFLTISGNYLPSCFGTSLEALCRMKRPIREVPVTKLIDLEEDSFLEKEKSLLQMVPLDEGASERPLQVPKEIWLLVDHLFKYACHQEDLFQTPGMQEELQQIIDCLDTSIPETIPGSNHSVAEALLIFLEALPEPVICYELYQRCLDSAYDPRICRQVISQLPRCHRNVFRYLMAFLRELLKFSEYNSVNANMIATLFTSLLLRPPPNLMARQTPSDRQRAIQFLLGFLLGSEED
Chain of Inositol polyphosphate 5-phosphatase OCRL (Homo sapiens), Q01968 I74Q (Q01968 whole entry I74Q): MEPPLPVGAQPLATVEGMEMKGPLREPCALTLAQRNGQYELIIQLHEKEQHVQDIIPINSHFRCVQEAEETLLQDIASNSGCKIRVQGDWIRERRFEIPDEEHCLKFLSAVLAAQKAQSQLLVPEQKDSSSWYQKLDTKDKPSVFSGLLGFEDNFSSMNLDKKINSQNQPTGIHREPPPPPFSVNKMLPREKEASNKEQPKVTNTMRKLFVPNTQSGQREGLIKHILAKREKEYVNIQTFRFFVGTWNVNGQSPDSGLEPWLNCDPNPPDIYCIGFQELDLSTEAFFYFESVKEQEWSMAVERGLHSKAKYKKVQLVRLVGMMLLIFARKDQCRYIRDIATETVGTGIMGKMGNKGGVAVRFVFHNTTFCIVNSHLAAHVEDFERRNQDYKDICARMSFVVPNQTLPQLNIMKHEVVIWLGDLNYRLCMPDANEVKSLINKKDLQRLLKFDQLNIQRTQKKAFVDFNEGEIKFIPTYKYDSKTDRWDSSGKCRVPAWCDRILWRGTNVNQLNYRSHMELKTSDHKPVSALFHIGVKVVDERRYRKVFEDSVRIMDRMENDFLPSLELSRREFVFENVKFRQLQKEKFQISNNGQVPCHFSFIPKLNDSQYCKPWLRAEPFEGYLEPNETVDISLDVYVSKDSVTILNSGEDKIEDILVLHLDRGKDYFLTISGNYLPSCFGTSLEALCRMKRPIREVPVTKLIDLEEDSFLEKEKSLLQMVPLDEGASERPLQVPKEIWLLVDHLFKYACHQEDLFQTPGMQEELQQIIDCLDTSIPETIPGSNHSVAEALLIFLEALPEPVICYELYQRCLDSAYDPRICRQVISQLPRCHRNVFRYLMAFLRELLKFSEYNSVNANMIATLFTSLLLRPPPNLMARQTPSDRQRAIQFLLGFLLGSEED

“Inositol polyphosphate 5-phosphatase OCRL (Homo sapiens), Q01968 L73S”: the “effect of a mutation on the interaction” value with clh1_rat Cltc [1] is “disrupting interaction”.

Regarding “Inositol polyphosphate 5-phosphatase OCRL (Homo sapiens), Q01968 I76Q”, in the assay with clh1_rat Cltc [2], the “effect of a mutation on the interaction” value is “disrupting interaction”.

Consider “Inositol polyphosphate 5-phosphatase OCRL (Homo sapiens), Q01968 I74Q”, for which the “effect of a mutation on the interaction” value with clh1_rat Cltc [3] is given as “disrupting interaction”.
